Reference: US20220340685A1 (Novartis, published 2022)
Values joined by “and” are separate entries in the source; they are usually repeats but may differ in a detail not shown here. Equal entries are not always repeated.

T1: recombinant human ENTPD2 (residues 29-462, Y350A mutant) used in crystallographic studies (human, UniProt Q9Y5L3 29-462, N-linked glycosylation observed at Asn129, Asn294, Asn378 and Asn443)
T1 construct: also called human ENTPD2 Y350A; hENTPD2 Y350A
T1 sequence: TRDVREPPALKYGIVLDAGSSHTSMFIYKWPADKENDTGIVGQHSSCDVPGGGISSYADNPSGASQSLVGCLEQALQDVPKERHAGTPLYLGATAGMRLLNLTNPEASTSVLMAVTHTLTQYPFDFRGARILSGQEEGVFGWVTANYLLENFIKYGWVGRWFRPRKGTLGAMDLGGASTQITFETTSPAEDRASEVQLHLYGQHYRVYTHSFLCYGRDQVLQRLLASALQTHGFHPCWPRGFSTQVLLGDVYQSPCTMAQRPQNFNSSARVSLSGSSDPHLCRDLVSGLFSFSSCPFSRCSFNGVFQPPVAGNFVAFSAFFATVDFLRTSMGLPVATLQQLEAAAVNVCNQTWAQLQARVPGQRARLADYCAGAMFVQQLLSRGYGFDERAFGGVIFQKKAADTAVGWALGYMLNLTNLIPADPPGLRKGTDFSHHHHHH

T2: mouse ENTPD2 on cells (mouse, UniProt O55026 1-495)
T2 sequence: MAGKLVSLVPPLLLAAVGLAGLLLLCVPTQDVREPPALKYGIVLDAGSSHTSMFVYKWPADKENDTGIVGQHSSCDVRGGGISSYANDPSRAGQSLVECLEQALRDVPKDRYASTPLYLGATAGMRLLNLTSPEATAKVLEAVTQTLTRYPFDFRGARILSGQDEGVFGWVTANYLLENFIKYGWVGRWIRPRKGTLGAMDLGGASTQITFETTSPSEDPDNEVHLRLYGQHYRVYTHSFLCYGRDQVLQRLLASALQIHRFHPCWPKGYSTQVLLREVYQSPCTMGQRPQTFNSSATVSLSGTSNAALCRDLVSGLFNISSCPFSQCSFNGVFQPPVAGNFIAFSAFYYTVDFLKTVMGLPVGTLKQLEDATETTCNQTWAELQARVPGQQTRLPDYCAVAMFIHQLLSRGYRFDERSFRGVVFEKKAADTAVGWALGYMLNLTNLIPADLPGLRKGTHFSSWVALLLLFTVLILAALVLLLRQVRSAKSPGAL


How the values were obtained:
[1] = target: T1, recombinant human ENTPD2 (residues …); assay: X-ray co-crystal structure
[2] = target: T2, mouse ENTPD2 on cells; assay: cell-based or functional assay
[3] = target: human FcγRIIIa, V158 (high affinity variant) (human, UniProt P08637 17-254); assay: cell-based or functional assay
Chain of human FcγRIIIa, V158 (high affinity variant) (P08637 other isoform, or with tags, fused parts or gaps mutant limits assumed): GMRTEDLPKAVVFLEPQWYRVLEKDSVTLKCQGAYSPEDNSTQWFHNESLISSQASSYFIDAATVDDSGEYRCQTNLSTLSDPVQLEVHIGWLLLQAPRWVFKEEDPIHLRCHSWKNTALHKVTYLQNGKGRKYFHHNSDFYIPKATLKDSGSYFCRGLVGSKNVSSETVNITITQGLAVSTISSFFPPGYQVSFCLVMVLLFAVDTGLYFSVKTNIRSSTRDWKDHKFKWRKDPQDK

Binder	binding result [1]	ENTPD2 Functional Assay IC50 (mouse ENTPD2 NIH/3T3 cell-based assay) [2]	other results
anti-human ENTPD2 FAb22 (Fab, V domains shown, Fab with human CH1 and human kappa constant regions; CDRs of mAb16; also called anti-hENTPD2 FAb22) VH: EVKLEQSGPGLVKPSQSLSLTCSVTGYSITSGYYWNWIRQFPGNKLEWMSYISYDGDNNYNPSLKNRISITRDTSKNQFFLKLSSVTTEDTATYYCAGGYYRYGLSYYYVMDYWGQGTSVTVSA VL: DIKMTQSPASLAVSLGQRATISCKASQSVDYDGNSYMNWYQQKPGQPPKLLIYAASNLESGIPARFSGSGSGTDFTLNIHPVEEEDAATYYCQQSNEDPPTFGGGTKLELKR	binds	–	–
anti-mouse ENTPD2 mAb13 (antibody, mouse IgG2a, kappa, V domains shown) VH: QVQLVQSGAELKQPGQSVKISCKASGYTFTHYGMNWVKQAPGQGLKWMGWINTDTGNPTYADDFKGRFVFSLDTSVSTAYLQISNLKNEDTATYYCVRYGTLYSGYGFFFDSWGQGTLVTVSS VL: DIMMTQSPSSLSVSAGEKATITCKSSQSLFNSNTNKNYLNWYLQKPGQSPKLLFYYASTRHTGVPDRFIGSGSGTDFTLTITSVQDEDLADYYCQQWYSYPWTFGPGTKLEIKR	–	2.8 nM	–
anti-mouse ENTPD2 mAb14 (antibody, mouse IgG2a, kappa, V domains shown) VH: QVQLVQSGAELKQPGQSVKISCKASGYTFWHYGMNWVKQAPGQGLKWMGWINTDTGNPTYADDFKGRFVFSLDTSVSTAYLQISNLKNEDTATYYCVRYGTLYSGYGFFFDSWGQGTLVTVSS VL: DIMMTQSPSSLSVSAGEKATITCKSSQSLFNSNTNKNYLNWYLQKPGQSPKLLFYYASTRHTGVPDRFIGSGSGTDFTLTITSVQDEDLADYYCQQWYSYPWTFGPGTKLEIKR	–	4.6 nM	–
anti-mouse ENTPD2 mAb15 (antibody, mouse IgG2a, kappa, V domains shown) VH: QVQLVQSGAELKQPGQSVKISCKASGYTFHHYGMNWVKQAPGQGLKWMGWINTDTGNPTYADDFKGRFVFSLDTSVSTAYLQISNLKNEDTATYYCVRYGTLYSGYGFFFDSWGQGTLVTVSS VL: DIMMTQSPSSLSVSAGEKATITCKSSQSLFNSNTNKNYLNWYLQKPGQSPKLLFYYASTRHTGVPDRFIGSGSGTDFTLTITSVQDEDLADYYCQQWYSYPWTFGPGTKLEIKR	–	5.9 nM	–
anti-human ENTPD2 FAb23 (Fab, V domains shown, residue 1 of the light chain observed and modeled as pyroglutamate in the crystal structure, Fab with human CH1 and human kappa constant regions; variable regions of mAb17; also called anti-hENTPD2 FAb23; anti-human ENTPD2 MAB17 Fab) VH: EVQLQQFGAELVKPGASVKISCKASGYTFTDYNMDWVKQSHGKSLEWIGDINPKYDISTYNQQFKGKATLTVDKSSSTAYMELRSLTSEDTAVYYCARRGFFLYYGINYYYFDVWGAGTTVTVSS VL: QIVLTQSPAIMSASLGEEITLTCSASSSVSYIHWYQQKSGTSPTLLIYSTSNLASGVPSRFSGSGSGTFYSLTISSVEAEDAADYYCHQWSSYPWTFGGGTKLEIKR	binds	–	–
anti-human ENTPD2 mAb1 (antibody, human IgG1, kappa) heavy: not shown light: DIQLTQSPSSLSASVGDRVTITCSASSSVSYIHWFQQKPGKAPKLLIYSTSNLASGVPSRFSGSGSGTFFTLTISSLQPEDFATYFCHQWSSYPWTFGQGTKVEIKRTVAAPSVFIFPPSDEQLKSGTASVVCLLNNFYPREAKVQWKVDNALQSGNSQESVTEQDSKDSTYSLSSTLTLSKADYEKHKVYACEVTHQGLSSPVTKSFNRGEC	–	–	FcγRIIIa signaling, Jurkat NFAT-luciferase reporter cells with RKO target cells, EC50 [3]: 17.3 nM and 2.55 µg/mL
